Broadly, the stoichiometry N is a count of units in the complex or per binding partner.

In assay [1] the target is E74C V144C Ta16.9 (Ta_(CT-ACD)), reduced (wheat (Triticum aestivum)) (UniProt Q41560). Briefly: dynamic light scattering.
The target is the same in assay [2]. Briefly: native MS.
Assay [3] has as its target E81C V151C Ps18.1 (Ps_(CT-ACD)), reduced (Pisum sativum) (UniProt P19243). As to the kind of experiment: dynamic light scattering.
The target in assay [4] is K49C W96C Ta16.9 (Ta_(dimer)), oxidized: disulfide bonded at the dimeric interface (wheat (Triticum aestivum)) (UniProt Q41560). As to the kind of experiment: cross-linking.
Assay [5] has the same target. Briefly: dynamic light scattering.
The target is the same in assay [6]. Briefly: SEC. Background: In gel filtration, larger molecules generally elute earlier.
For assay [7], the target named is K49C W96C Ta16.9 (Ta_(dimer)), reduced (wheat (Triticum aestivum)) (UniProt Q41560). As to the kind of experiment: dynamic light scattering.
The target of assay [8] is Ps18.1, cytosolic class-I small heat-shock protein from Pisum sativum, wild type (Pisum sativum) (UniProt P19243). As to the kind of experiment: dynamic light scattering.
The target is the same in assay [9]. Briefly: SAXS.

As for “E74C V144C Ta16.9 (Ta_(CT-ACD)), reduced (from UniProt Q41560 1-151) (natural protein)”, the stoichiometry N in assay [1] and in assay [2] was 12 in each case.

In assay [3], “E81C V151C Ps18.1 (Ps_(CT-ACD)), reduced (from UniProt P19243 1-158) (natural protein)” showed a stoichiometry N of 12.

In turn, “K49C W96C Ta16.9 (Ta_(dimer)), oxidized: disulfide bonded at the dimeric interface (from UniProt Q41560 1-151) (natural protein)” had a size of the disulfide-linked covalent unit in assay [4] of 2 chains. Also, the stoichiometry N in [5] and in [6] was 12 each time.

In the case of “K49C W96C Ta16.9 (Ta_(dimer)), reduced (from UniProt Q41560 1-151) (natural protein)”, the stoichiometry N in [7] was 12.

In the case of “Ps18.1, cytosolic class-I small heat-shock protein from Pisum sativum, wild type (from UniProt P19243 1-158) (natural protein)”, the stoichiometry N in assay [8] and in [9] was 12 in each case.

The values above are taken from doi:10.1101/369454.
